Reference: the supplement of paper PMC9112550, “Optimization of the antimicrobial peptide Bac7 by deep mutational scanning” (BMC Biology, 2022)

Tested on: Escherichia coli TOP10
Experiment: shrunken log2 fold change of peptide-encoding DNA abundance (4.5 h post-induction vs induction); higher = less antimicrobial activity (less host growth inhibition)
Conditions: time post-induction: 4.5 h; library: site-saturation at positions 5, 18, 19, 20
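Further: peptides expressed intracellularly from a pBAD plasmid library in pooled LB shake-flask culture, induced with 0.3% L-arabinose, DNA abundance read by NGS, three biological replicates, DESeq2 with apeglm shrinkage.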

Sequence	shrunken log2 fold change
RRIRSRPPRLPRPRPRPVDTPRP	-0.103
RRIRYRPPRLPRPRPRPEVNPRP	-0.0081
RRIRKRPPRLPRPRPRPKSVPRP	0.451
RRIRWRPPRLPRPRPRPCHMPRP	-0.0433
RRIRERPPRLPRPRPRPLIVPRP	-0.632
RRIRARPPRLPRPRPRPVWKPRP	0.125
RRIRTRPPRLPRPRPRPQEFPRP	0.0555
RRIRSRPPRLPRPRPRPTAKPRP	0.528
RRIRERPPRLPRPRPRPSVCPRP	-0.0246
RRIRNRPPRLPRPRPRPWFTPRP	-0.786
RRIRSRPPRLPRPRPRPAYPPRP	0.0454
RRIRDRPPRLPRPRPRPNYDPRP	-0.211
RRIRNRPPRLPRPRPRPHKKPRP	-0.00756
RRIRVRPPRLPRPRPRPEIQPRP	0.349
RRIRARPPRLPRPRPRPPLMPRP	0.408
RRIRGRPPRLPRPRPRPARAPRP	1.03
RRIRTRPPRLPRPRPRPRHAPRP	0.329
RRIRGRPPRLPRPRPRPMDKPRP	0.378
RRIRARPPRLPRPRPRPHHWPRP	0.145
RRIRQRPPRLPRPRPRPWENPRP	0.0728
RRIRHRPPRLPRPRPRPQKIPRP	0.0342
RRIRDRPPRLPRPRPRPMLTPRP	0.155
RRIRYRPPRLPRPRPRPLYMPRP	-0.441
RRIRPRPPRLPRPRPRPMMWPRP	0.0433
RRIRMRPPRLPRPRPRPTHEPRP	0.439

Sequence	shrunken log2 fold change
RRIRLRPPRLPRPRPRPGIWPRP	0.355
RRIRERPPRLPRPRPRPVRQPRP	0.412
RRIRTRPPRLPRPRPRPMWAPRP	0.0473
RRIRCRPPRLPRPRPRPHENPRP	-0.0452
RRIRLRPPRLPRPRPRPKLLPRP	-0.331
RRIRNRPPRLPRPRPRPTYCPRP	-0.276
RRIRGRPPRLPRPRPRPADRPRP	1.07
RRIRMRPPRLPRPRPRPYIEPRP	-0.201
RRIRMRPPRLPRPRPRPTMMPRP	0.168
RRIRERPPRLPRPRPRPEHDPRP	-0.0107
RRIRYRPPRLPRPRPRPTARPRP	-0.0799
RRIRCRPPRLPRPRPRPQAAPRP	0.225
RRIRPRPPRLPRPRPRPHEMPRP	-0.142
RRIRTRPPRLPRPRPRPPDRPRP	0.257
RRIRDRPPRLPRPRPRPFDSPRP	-0.0169
RRIRLRPPRLPRPRPRPTTAPRP	0.115
RRIRERPPRLPRPRPRPKKEPRP	-0.0367
RRIRFRPPRLPRPRPRPTWGPRP	0.132
RRIRMRPPRLPRPRPRPWNHPRP	-0.0446
RRIRWRPPRLPRPRPRPMQMPRP	1.53
RRIRIRPPRLPRPRPRPPHEPRP	0.225
RRIRDRPPRLPRPRPRPDCGPRP	0.315
RRIRSRPPRLPRPRPRPHIRPRP	-0.632
RRIRLRPPRLPRPRPRPYCGPRP	-0.0687
RRIRLRPPRLPRPRPRPNMDPRP	0.0212

Sequence	shrunken log2 fold change
RRIRTRPPRLPRPRPRPMQAPRP	-0.0247
RRIRSRPPRLPRPRPRPNGHPRP	-0.0925
RRIRLRPPRLPRPRPRPHFVPRP	-0.0621
RRIRLRPPRLPRPRPRPADQPRP	0.0203
RRIRIRPPRLPRPRPRPPFVPRP	0.104
RRIRCRPPRLPRPRPRPYWQPRP	-0.419
RRIRFRPPRLPRPRPRPPAQPRP	1.02
RRIRYRPPRLPRPRPRPDCSPRP	-0.315
RRIRKRPPRLPRPRPRPPRVPRP	0.648
RRIRWRPPRLPRPRPRPVSWPRP	0.782
RRIRKRPPRLPRPRPRPLFIPRP	-0.291
RRIRSRPPRLPRPRPRPTLHPRP	0.147
RRIRERPPRLPRPRPRPRCCPRP	-0.234
RRIRKRPPRLPRPRPRPFNNPRP	-0.0235
RRIRVRPPRLPRPRPRPTHKPRP	0.333
RRIRRRPPRLPRPRPRPHPWPRP	0.25
RRIRHRPPRLPRPRPRPRWEPRP	0.136
RRIRSRPPRLPRPRPRPQQKPRP	-0.138
RRIRERPPRLPRPRPRPILIPRP	-0.0809
RRIRWRPPRLPRPRPRPPTCPRP	0.614
RRIRMRPPRLPRPRPRPGRMPRP	0.993
RRIRERPPRLPRPRPRPECVPRP	0.162
RRIRTRPPRLPRPRPRPQEQPRP	0.021
RRIRYRPPRLPRPRPRPVGDPRP	-0.0659
RRIRVRPPRLPRPRPRPCGTPRP	-0.317

Sequence	shrunken log2 fold change
RRIRVRPPRLPRPRPRPKAGPRP	0.0641
RRIRTRPPRLPRPRPRPHFHPRP	-0.589
RRIRHRPPRLPRPRPRPCYLPRP	-0.897
RRIRMRPPRLPRPRPRPMHKPRP	0.413
RRIRVRPPRLPRPRPRPDLYPRP	-0.35
RRIRERPPRLPRPRPRPMDQPRP	-0.00192
RRIRWRPPRLPRPRPRPALGPRP	0.645
RRIRLRPPRLPRPRPRPFICPRP	-0.426
RRIRSRPPRLPRPRPRPHPHPRP	-0.168
RRIRMRPPRLPRPRPRPQSIPRP	-0.0553
RRIRERPPRLPRPRPRPYSCPRP	0.0107
RRIRDRPPRLPRPRPRPHAKPRP	0.0435
RRIRTRPPRLPRPRPRPKCDPRP	0.118
RRIRWRPPRLPRPRPRPKFWPRP	0.0806
RRIRKRPPRLPRPRPRPRYHPRP	-0.17
RRIRGRPPRLPRPRPRPEYMPRP	0.409
RRIRTRPPRLPRPRPRPSNVPRP	-0.337
RRIRLRPPRLPRPRPRPFFCPRP	-0.0304
RRIRMRPPRLPRPRPRPNHSPRP	-0.38
RRIRVRPPRLPRPRPRPHPEPRP	-0.155
RRIRTRPPRLPRPRPRPNMYPRP	-0.637
RRIRGRPPRLPRPRPRPCFDPRP	0.299
RRIRPRPPRLPRPRPRPQSIPRP	-0.105
RRIRWRPPRLPRPRPRPEKKPRP	0.0589
RRIRMRPPRLPRPRPRPPDDPRP	0.0932

Sequence	shrunken log2 fold change
RRIRARPPRLPRPRPRPCVVPRP	0.198
RRIRARPPRLPRPRPRPAAKPRP	1.04
RRIRSRPPRLPRPRPRPHQEPRP	-0.0261
RRIRIRPPRLPRPRPRPAQWPRP	0.211
RRIRLRPPRLPRPRPRPKTMPRP	0.0334
RRIRARPPRLPRPRPRPWCCPRP	0.104
RRIRFRPPRLPRPRPRPYSMPRP	-0.417
RRIRLRPPRLPRPRPRPILDPRP	-0.05
RRIRCRPPRLPRPRPRPKTCPRP	-0.211
RRIRPRPPRLPRPRPRPRFNPRP	-0.181
RRIRTRPPRLPRPRPRPFFKPRP	-0.303
RRIRQRPPRLPRPRPRPAFVPRP	-0.0399
RRIRSRPPRLPRPRPRPSGYPRP	-0.443
RRIRVRPPRLPRPRPRPNSWPRP	0.0957
RRIRNRPPRLPRPRPRPDQVPRP	-0.148
RRIRERPPRLPRPRPRPHYWPRP	-0.353
RRIRHRPPRLPRPRPRPNRRPRP	-0.00884
RRIRERPPRLPRPRPRPMHYPRP	-0.0285
RRIRIRPPRLPRPRPRPMFSPRP	-0.433
RRIRDRPPRLPRPRPRPFKDPRP	-0.00443
RRIRMRPPRLPRPRPRPDAQPRP	2.65
RRIRVRPPRLPRPRPRPRGKPRP	0.252
RRIRTRPPRLPRPRPRPNIFPRP	-0.174
RRIRARPPRLPRPRPRPPTHPRP	0.398
RRIRTRPPRLPRPRPRPYGLPRP	4.72
